We go through 1 molecule from patent CN112279916A (DINGFU BIOTARGET CO LTD, dated 2021).

In the test the target is T1, hIL13RA1-EGFP (细胞表面hIL13RA1, HEK293细胞) (human, UniProt P78552 22-427).
T1 construct: also called 人IL13RA1; not shown: enhanced green fluorescent protein EGFP, UniProt C5MKY7
T1 sequence (looked up): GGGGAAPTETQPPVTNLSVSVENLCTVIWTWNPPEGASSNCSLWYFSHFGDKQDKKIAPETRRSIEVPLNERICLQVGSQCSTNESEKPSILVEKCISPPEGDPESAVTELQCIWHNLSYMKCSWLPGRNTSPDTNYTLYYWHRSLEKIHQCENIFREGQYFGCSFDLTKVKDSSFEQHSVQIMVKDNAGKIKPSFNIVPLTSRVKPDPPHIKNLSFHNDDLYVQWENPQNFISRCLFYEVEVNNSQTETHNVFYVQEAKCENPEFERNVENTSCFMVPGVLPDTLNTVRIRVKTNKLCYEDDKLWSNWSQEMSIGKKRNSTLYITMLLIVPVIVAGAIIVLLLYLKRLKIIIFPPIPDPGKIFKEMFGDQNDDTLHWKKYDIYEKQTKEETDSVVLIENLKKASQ
In words: FACS on hIL13RA1-EGFP HEK293 cells, 2 μg antibody, secondary antibody anti-hIg-PE.

B1: anti-hIL13RA1 scFv抗体 (Fc fusion)
scFv: QVQLQQSGPGLVKPSQTLLITCAISGDSVSSNSAAWNWIRQSPSGSLEWLGRTYYRSKWYSHYAVSVTGRMTINSDSSKNQFSLQLDSVTPEDMAIYYCAREEVAGRGSFDFWGQGTLVTVSSGILGSGGGGSGGGGSGGGGSDIQLTQSPSFLSASVGDRVTITCRASQSISKNLVWYQQKPGKAPKLLIYSASTLQSGVPSRFSGSGSGTDFTLTISSLQPEDCALYFCQQAHSFPVTFGQGTRLEIK
notes: also called anti-IL13RA1 35#; IL13RA1抗体; not shown: human IgG1-Fc domain, UniProt P01857 residues 104-330
Regarding B1, the binding result is given as “binds”.
